Target: FVa light chain (FVaL) derived from ΔFV or its mutants by thrombin (human) (UniProt P12259)
Test: cell-based or functional assay

Sequence of UniProt P12259 (P12259 other isoform, or with tags, fused parts or gaps mutant limits assumed): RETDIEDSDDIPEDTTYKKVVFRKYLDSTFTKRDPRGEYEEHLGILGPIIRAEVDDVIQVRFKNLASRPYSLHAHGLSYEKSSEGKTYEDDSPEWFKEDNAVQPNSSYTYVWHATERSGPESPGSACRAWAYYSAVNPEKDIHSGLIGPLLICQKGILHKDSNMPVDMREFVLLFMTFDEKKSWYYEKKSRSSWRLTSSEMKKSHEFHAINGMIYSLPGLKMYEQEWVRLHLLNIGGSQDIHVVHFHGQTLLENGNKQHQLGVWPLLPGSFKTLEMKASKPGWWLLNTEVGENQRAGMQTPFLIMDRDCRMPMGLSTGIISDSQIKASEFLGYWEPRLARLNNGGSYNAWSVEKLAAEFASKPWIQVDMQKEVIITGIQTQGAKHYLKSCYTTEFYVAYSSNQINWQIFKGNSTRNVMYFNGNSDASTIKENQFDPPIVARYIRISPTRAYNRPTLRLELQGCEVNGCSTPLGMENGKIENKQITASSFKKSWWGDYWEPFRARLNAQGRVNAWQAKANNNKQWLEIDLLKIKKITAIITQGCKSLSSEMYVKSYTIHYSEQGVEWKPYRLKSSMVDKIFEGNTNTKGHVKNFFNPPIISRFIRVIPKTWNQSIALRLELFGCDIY

inhibition of ΔFV activity (prothrombinase function, thrombin generation): 98%
Substance: FVaH derived from ΔFV multipoint mutant ED/EDD (E96, D102, E108, D111 and D112 to Ala) (from UniProt P12259 29-737)

— patent publication US20060241039A1
